In general, Kd refers to the concentration at which binding is half-saturated. A higher Kd goes with weaker binding.

Experimental findings from US20190202925A1 are described below.

Experiment [1] has as its target human TNFR2 on cells (human) (UniProt P20333). Kind of experiment: cell-based or functional assay.
The target of experiment [2] is monomeric human TNFR2 extracellular domain (human) (UniProt P20333). Description: BLI (Octet Red 96), Human TNFR2 Kd (1-1). (In BLI a coated tip is dipped into the sample, and binding shifts an interference pattern.)
monomeric human TNFR2 extracellular domain (human), sequence (P20333 23-257): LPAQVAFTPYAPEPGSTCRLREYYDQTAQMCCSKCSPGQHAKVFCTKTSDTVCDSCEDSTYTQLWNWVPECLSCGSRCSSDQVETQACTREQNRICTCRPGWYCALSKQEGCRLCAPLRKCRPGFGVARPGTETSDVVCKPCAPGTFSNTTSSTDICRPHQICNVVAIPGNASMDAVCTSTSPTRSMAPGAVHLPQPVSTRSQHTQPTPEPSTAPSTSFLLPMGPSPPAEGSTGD

human TNFR2 on cells (human), sequence (P20333 23-461): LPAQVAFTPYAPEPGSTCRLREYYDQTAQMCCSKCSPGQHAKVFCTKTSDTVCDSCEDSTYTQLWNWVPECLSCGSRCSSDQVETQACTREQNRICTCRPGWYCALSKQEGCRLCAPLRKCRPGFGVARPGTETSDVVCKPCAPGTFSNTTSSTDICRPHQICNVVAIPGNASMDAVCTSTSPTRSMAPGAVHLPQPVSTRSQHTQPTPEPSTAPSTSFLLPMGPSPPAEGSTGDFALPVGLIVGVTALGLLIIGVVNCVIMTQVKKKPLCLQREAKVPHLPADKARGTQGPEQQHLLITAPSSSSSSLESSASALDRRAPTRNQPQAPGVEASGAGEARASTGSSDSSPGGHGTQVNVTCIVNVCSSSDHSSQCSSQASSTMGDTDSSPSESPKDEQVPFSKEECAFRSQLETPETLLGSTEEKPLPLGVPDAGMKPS

B1: SBT-004 (antibody, V domains shown)
VH: EVQLQQSGPEVGRPGSSVKISCKASGYTFTDYIMHWVKQSPGQGLEWIGWVDPEYGSTDYAEKFKKKATLTADTSSNTAYIQLSSLTSEDTATYFCARDDGSYSPFDYWGQGVMVTVSS
VL: DIQMTQSPPSLSASLGDKVTITCQASQNINKYIAWYQQKPGKAPRLLIRYTSTLESGTPSRFSGSGSGRDYSFSISNVESEDIASYYCLQYVNLLTFGAGTKLEIK
With B1, in experiment [1], the IC50 (µg/mL) (with pre-incubation); rescue of Jurkat H6 cells from 2 ng/mL TNFα, luminescence amounted to 0.09 µg/mL and the IC50 (µg/mL) (without pre-incubation); rescue of Jurkat H6 cells from 2 ng/mL TNFα, luminescence worked out at 0.1 µg/mL.

B2: chimeric SBT-004 Fc null (antibody, part only; not given: light chain and Fc null constant region, V domains shown, part only)
VH: EVQLQQSGPEVGRPGSSVKISCKASGYTFTDYIMHWVKQSPGQGLEWIGWVDPEYGSTDYAEKFKKKATLTADTSSNTAYIQLSSLTSEDTATYFCARDDGSYSPFDYWGQGVMVTVSS
Take B2: in experiment [2], the dissociation constant (Kd) is 5 nM.
